In the test the target is T1, recombinant human VEGF-R1 (human, UniProt P17948 27-756, limits assumed).
T1 construct: Bought (Acro Biosystems), used as positive control analyte in SPR; also called rhVEGF-R1; VEGF receptor
The experiment in a line: SPR, Biacore T200, 25 C, VEGF165 immobilized, multi cycle kinetics. On the procedure:
Surface plasmon resonance spectroscopy. The kinetic parameters of the VEGF-binders were measured using a Biacore T200 instrument at 25° C. The bait ligand (recombinant human VEGF₁₆₅, Acro Biosystems) was covalently immobilized on a sensor chip Cl surface at three different densities. The prey analyte (different DARPins, or as a positive control, recombinant human VEGF-R1 (Acro Biosystems)) was analysed using multi cycle kinetics in 10 mM HEPES pH 7.4, 150 mM NaCl, 3 mM EDTA, 0.05% Tween 20 at a flow rate of 50 μl/min.
For determination of the kinetic parameters, the concentration of the probe was measured using a BCA assay (Pierce) and the molecular weight was determined via the SPR signal measured at saturating conditions (Rₘₐₓ). See Table 4 for the MW determined via SPR. Each probe was measured twice on sensor surfaces with three different densities of covalently immobilized recombinant human VEGF₁₆₅. The KD of rhVEGF-R1 is in the double-digit nanomolar range. The unmodified DARPin has a single-digit picomolar affinity to human VEGF₁₆₅, as reported by Stahl et al. (Angiogenesis 16, 101-111 (2013)).

Experimental findings from patent publication US20220242919A1 (LIMMATECH BIOLOGICS, published 2022) are described below.

T1 sequence (P17948 27-756 limits assumed): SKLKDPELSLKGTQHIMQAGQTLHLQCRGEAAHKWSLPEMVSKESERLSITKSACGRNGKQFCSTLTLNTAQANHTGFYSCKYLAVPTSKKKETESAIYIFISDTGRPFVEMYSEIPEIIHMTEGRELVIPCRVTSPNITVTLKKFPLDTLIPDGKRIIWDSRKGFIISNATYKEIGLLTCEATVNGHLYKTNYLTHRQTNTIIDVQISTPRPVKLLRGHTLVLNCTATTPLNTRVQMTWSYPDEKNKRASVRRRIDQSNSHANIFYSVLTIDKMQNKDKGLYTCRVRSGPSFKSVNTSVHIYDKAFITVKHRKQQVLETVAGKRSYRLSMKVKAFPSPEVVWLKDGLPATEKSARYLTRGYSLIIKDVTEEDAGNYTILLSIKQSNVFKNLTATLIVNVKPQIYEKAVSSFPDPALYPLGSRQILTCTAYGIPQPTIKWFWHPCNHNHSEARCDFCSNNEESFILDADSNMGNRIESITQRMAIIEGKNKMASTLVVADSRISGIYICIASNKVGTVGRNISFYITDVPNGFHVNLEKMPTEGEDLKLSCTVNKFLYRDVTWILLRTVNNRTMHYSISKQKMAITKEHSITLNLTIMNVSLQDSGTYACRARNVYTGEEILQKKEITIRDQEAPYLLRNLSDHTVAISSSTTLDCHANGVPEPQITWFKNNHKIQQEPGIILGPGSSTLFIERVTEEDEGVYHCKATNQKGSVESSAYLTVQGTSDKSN

B1: recombinant human VEGF165 (ligand, UniProt P15692-4 27-191, looked up)
chain: APMAEGGGQNHHEVVKFMDVYQRSYCHPIETLVDIFQEYPDEIEYIFKPSCVPLMRCGGCCNDEGLECVPTEESNITMQIMRIKPHQGQHIGEMSFLQHNKCECRPKKDRARQENPCGPCSERRKHLFVQDPQTCKCSCKNTDSRCKARQLELNERTCRCDKPRR
notes: Bought (Acro Biosystems); covalently immobilized on a Biacore sensor chip C1 surface at three densities; also called VEGF-A
In the case of B1, the dissociation constant Kd is 0.069 nM, the off-rate constant (koff) was determined as 8.1e-05 s⁻¹ and the kon is 1.1e+06 M⁻¹ s⁻¹.

Usually Kd stands for a measure of binding affinity in units of concentration. What is called koff is a measure of how fast the partners let go of each other. For orientation: kon means a measure of how fast the partners come together.
